In the assay the target is T1, human Claudin18.2 (human, UniProt P56856-2 1-261).
T1 construct: whole, on cells; expressed on Dubca, HEK293T, PANC1 cells by lentiviral transduction; endogenous on NUGC4 and KATOIII cells; also called huCLDN18.2; CLDN18.2
The assay is described as follows: phage ELISA and cell binding of phage supernatant, HEK293T.huCLDN18.2.Luc cells. The protocol:
Phage ELISA was performed to identify clones specific to the target antigens. Individual output phage clones were grown in 96-deep-well plates and rescued by M13KO7 helper phage overnight. To identify clones that bound to antigen proteins, 96-well ELISA microtiter plates were coated with recombinant human HEK293T.huCLDN18.1.Luc and HEK293T.huCLDN18.2.Luc cells respectively in coating buffer overnight at 4° C., and the plates were then blocked with blocking buffer. After blocking, approximately 50 µL per well of phage supernatant from overnight cell culture was added to the plates for 1.5-hour incubation at 4° C. The plates were washed four times, and the HRP-conjugated anti-M13 monoclonal antibody was added to the plates for 45-minute incubation at 4° C. The plates were again washed five times and substrate solution was added to the wells for color developing. Absorbance at 450 nm was measured for each well.
To further identify clones that bind HEK293T.huCLDN18.2.Luc cells, the HEK293T.CLDN18.2.Luc cells were blocked with blocking buffer at room temperature for 1 hour. After blocking, approximately 20 µL per well of phage supernatant from overnight cell culture was added to the cell solutions for 1-hour incubation at room temperature. […] The absorption was measured at 450 nm.

B1: VHH182512 (VHH)
VHH: EVQLVESGGGSVQAGGSLTLSCEASRSTANMAWFRQGPGKEREGVAAAHSDGSTKYADSVKGRFTISKDNGKNTLYLRMNGLKPEEGVMYYCAARGSPWWNSVVALESYAYSYWGQGTQVTVSS
With B1, the binding result is given as “binds”.

The values are drawn from patent publication US20230192841A1 (NANJING LEGEND BIOTECH, published 2023).
